The results in this text go back to patent US20220177587A1, “METHODS AND USES OF VARIANT CD80 FUSION PROTEINS AND RELATED CONSTRUCTS” (Alpine Immune Sciences, Inc., priority 2018, published 2022).

For assay [1], the target named is CD28 (human) (UniProt P10747). The experiment in a line: flow cytometry, Jurkat cells (CD28).
Assay [2] deals with human CTLA-4 (human) (UniProt P16410). Put plainly: flow cytometry, CHO cells expressing CTLA4.
Assay [3] deals with PD-L1 (human) (UniProt Q9NZQ7). The experiment in a line: flow cytometry, CHO cells expressing PD-L1.
Target sequence in this assay (Q9NZQ7 19-290): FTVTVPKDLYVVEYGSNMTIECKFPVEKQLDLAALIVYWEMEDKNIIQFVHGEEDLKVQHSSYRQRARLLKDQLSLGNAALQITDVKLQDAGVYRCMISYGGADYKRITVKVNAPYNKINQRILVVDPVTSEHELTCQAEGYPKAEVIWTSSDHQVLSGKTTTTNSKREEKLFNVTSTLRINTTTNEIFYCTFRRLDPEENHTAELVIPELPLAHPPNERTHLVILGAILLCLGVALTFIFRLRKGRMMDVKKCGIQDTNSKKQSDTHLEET
The target in assay [4] is PD-L1 (human) (UniProt Q9NZQ7). Put plainly: flow cytometry, MFI on PD-L1 over MFI on CD28.
Target sequence in this assay (Q9NZQ7 19-290): as above
For assay [5], the target named is CD28 (human) (UniProt P10747).
In assay [6] the target is PD-L1 (human) (UniProt Q9NZQ7).
Target sequence in this assay (Q9NZQ7 19-290): as above
The target of assay [7] is PD-L1 (human) (UniProt Q9NZQ7). Put plainly: flow cytometry, CHO cells expressing huPD-L1.
For assay [8], the target named is PD-L1 (human) (UniProt Q9NZQ7). Put plainly: flow cytometry, CHO cells expressing huPD-L1. The source holds these as a separate data set.
Assay [9] has as its target CD28 (human) (UniProt P10747). The experiment in a line: flow cytometry, Jurkat/IL2 reporter cells (CD28).
The target in assay [10] is CD28 (human) (UniProt P10747). The experiment in a line: flow cytometry, Jurkat/IL2 reporter cells (endogenous CD28).
The target in assay [11] is CD28 (human) (UniProt P10747). This is another data set of the same source.
In assay [12] the target is human CTLA-4 (human) (UniProt P16410). The experiment in a line: flow cytometry, CHO cells stably expressing CTLA4.
For assay [13], the target named is PD-L1 (human) (UniProt Q9NZQ7). The experiment in a line: flow cytometry, CHO cells stably expressing PD-L1.
Target sequence in this assay (Q9NZQ7 19-290): as above
For assay [14], the target named is human CTLA-4 (human) (UniProt P16410). Put plainly: flow cytometry, CHO/CTLA4 cells; MFI over CD80 WT IgV-Fc.
Assay [15] has as its target PD-L1 (human) (UniProt Q9NZQ7). Put plainly: flow cytometry, CHO/PD-L1 cells; MFI over CD80 WT IgV-Fc.
Target sequence in this assay (Q9NZQ7 19-290): as above
Assay [16] deals with CD28 (human) (UniProt P10747). The experiment in a line: flow cytometry, Jurkat cells (CD28); MFI over CD80 WT IgV-Fc.
Assay [17] concerns the target CD28 (human) (UniProt P10747). Put plainly: flow cytometry, Jurkat cells (CD28). This is another data set of the same source.
Assay [18] concerns the target human CTLA-4 (human) (UniProt P16410). Put plainly: flow cytometry, CHO cells expressing huCTLA4.
For assay [19] the target is unchanged. The experiment in a line: flow cytometry, CHO cells stably expressing CTLA4. This is another data set of the same source.
For assay [20], the target named is PD-L1 (human) (UniProt Q9NZQ7). Put plainly: flow cytometry, CHO cells expressing huPD-L1. This is another data set of the same source.
Target sequence in this assay (Q9NZQ7 19-290): as above
In assay [21] the target is human CTLA-4 (human) (UniProt P16410). The experiment in a line: flow cytometry, CHO cells expressing huCTLA-4.
In assay [22] the target is CD28 (human) (UniProt P10747). Put plainly: flow cytometry, Jurkat/IL2 reporter cells (CD28). The source holds these as a separate data set.

Sequence of human CTLA-4 (human) (P16410 36-223): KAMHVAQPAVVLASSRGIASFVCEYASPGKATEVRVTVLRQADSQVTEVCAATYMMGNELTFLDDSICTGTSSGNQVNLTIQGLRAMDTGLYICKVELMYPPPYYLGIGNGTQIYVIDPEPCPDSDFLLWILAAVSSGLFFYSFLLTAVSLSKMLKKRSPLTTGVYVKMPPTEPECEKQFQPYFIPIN

As to “CD80 E24D/E35D/M47L/V68M/E95V/L97Q IgV-Fc (Fc fusion)”, the Fold change to WT CD80 in assay [1] stood at 0.5 fold; in assay [2] it was 8.8 fold; in [3], 362 fold. Further, the MFI at 33.3 nM in assay [1] worked out at 15 MFI; in [2], 15500 MFI; in assay [3], 18600 MFI. The Ratio of PDL1:CD28 in assay [4] worked out at 1270.
As to “CD80 E35D/M43I/M47L/V68M IgV-Fc (Fc fusion)”, the Fold change to WT CD80 in assay [1] was determined as 48.3 fold; in assay [2], 9.3 fold; in [3] it was 328 fold. Moreover, the MFI at 33.3 nM in [1] stood at 1520 MFI; in assay [2], 16200 MFI; in [3], 16900 MFI. For the same substance, the Ratio of PDL1:CD28 in assay [4] turned out to be 11.1.
For “CD80 E35D/M47L/V68M/E95V/L97Q IgV-Fc (Fc fusion)”, the Fold change to WT CD80 in [1] stood at 0.5 fold; in [2], 8.5 fold; in assay [3], 361 fold. Moreover, the MFI at 33.3 nM is 14 MFI in [1], 15000 MFI in assay [2] and 18600 MFI in assay [3]. Besides, the Ratio of PDL1:CD28 in assay [4] came to 1300.
For the substance “CD80 H18Y/E35D/D46E/M47I/V68M/R94L IgV-Fc (Fc fusion)”, the Fold change to WT CD80 in assay [1] came to 7.8 fold; in assay [2], 13.3 fold; in assay [3], 365 fold. The MFI at 33.3 nM stood at 244 MFI in assay [1], 23300 MFI in assay [2] and 18800 MFI in [3]. The Ratio of PDL1:CD28 in assay [4] was 77.1.
As for “CD80 H18Y/E35D/M47L/V68M/E95V/L97Q IgV-Fc (Fc fusion)”, the values for the Fold change to WT CD80 in assay [1], in assay [2] and in assay [3] were 0.5 fold, 11.7 fold and 286 fold, respectively. The MFI at 33.3 nM in [1] was found to be 14.5 MFI; in [2], 20500 MFI; in [3], 14800 MFI. Besides, the Ratio of PDL1:CD28 in assay [4] was 1020.
On to “CD80 H18Y/E35D/V68M/L85M/R94Q IgV-Fc (Fc fusion)”, for which the Fold change to WT CD80 in assay [1] is 0.4 fold; in assay [2], 11.3 fold; in assay [3], 280 fold. The MFI at 33.3 nM in assay [1] was 14 MFI; in assay [2], 19800 MFI; in assay [3] it was 14400 MFI. The Ratio of PDL1:CD28 in assay [4] came out at 1040.
As to “CD80 H18Y/V22D/E35D/M47V/N48K/V68M IgV-Fc (Fc fusion)”, the Fold change to WT CD80 in assay [1] was 8.2 fold; in [2] it was 9 fold; in assay [3] it was 250 fold. Moreover, the MFI at 33.3 nM is 257 MFI in [1], 15800 MFI in assay [2] and 12900 MFI in assay [3]. Further, the Ratio of PDL1:CD28 in assay [4] worked out at 50.1.
“CD80 IgV-Fc E35D/D46E/M47I/V68M/L85M (Fc fusion)”: the RLU at 5.0 nM: Fold Increase over WT CD80-IgV-Fc in [5] and in assay [6] was 3.1 fold each time.
In the case of “CD80 IgV-Fc E35D/D46E/M47V/V68M/L85Q (Fc fusion)”, the RLU at 5.0 nM: Fold Increase over WT CD80-IgV-Fc in assay [5] and in assay [6] was 2.5 fold in each case.
Regarding “CD80 IgV-Fc E35D/M47I/V68M/Y87N (Fc fusion)”, the RLU at 5.0 nM: Fold Increase over WT CD80-IgV-Fc in assay [5] and in assay [6] was 2.4 fold throughout.
On to “CD80 IgV-Fc H18Y/E35D/M38I/M47L/V68M/L85M (Fc fusion)”, for which the RLU at 5.0 nM: Fold Increase over WT CD80-IgV-Fc in assay [5] and in [6] was 0.5 fold throughout.
For the substance “CD80 IgV-Fc T13R/Q33L/E35D/M47V/T62S/V68M/L85M (Fc fusion)”, the RLU at 5.0 nM: Fold Increase over WT CD80-IgV-Fc in [5] and in assay [6] was 0.3 fold each time.
Consider “CD80 IgV-Fc V22D/E24D/E35D/M47L/V68M (Fc fusion)”, for which the RLU at 5.0 nM: Fold Increase over WT CD80-IgV-Fc in [5] and in assay [6] was 2.4 fold in each case.
In the case of “CD80 IgV-Fc V22D/E24D/E35D/M47L/V68M/L85M/D90G (Fc fusion)”, the RLU at 5.0 nM: Fold Increase over WT CD80-IgV-Fc in assay [5] and in assay [6] was 2.4 fold throughout.
For “CD80 T13R/Q33R/E35D/M38I/M47L/V68M/L85M IgV-Fc (Fc fusion)”, the Fold change to WT CD80 in [1] worked out at 0.5 fold; in [2], 12.6 fold; in [3], 21.5 fold. Moreover, the figures for the MFI at 33.3 nM in assay [1], in assay [2] and in assay [3] were 14.2 MFI, 22000 MFI and 1110 MFI, respectively. Also, the Ratio of PDL1:CD28 in assay [4] came to 77.9.
With WT CD80 ECD-Fc (R&D) (Fc fusion), the MFI at 33.3 nM in [7] worked out at 7940 MFI; in assay [8], 11900 MFI; in [9], 18000 MFI; in assay [10], 7630 MFI.
Regarding “WT CD80 ECD-Fc (control of Table E5) (Fc fusion)”, the Fold increase in IL2 reporter signal (Jurkat/IL2 reporter assay) (fold vs WT CD80 IgV-Fc) in [11] was 0.93.
“variant CD80 IgV-Fc (inert) H18A/A26N/E35D/M47L/V68M/A71G/D90G (Fc fusion)”: the MFI at 33.3 nM turned out to be 4910 MFI in assay [1], 21400 MFI in assay [12] and 36300 MFI in [13]. Besides, the Fold change to WT CD80 in assay [14] is 15.4 fold; in [15] it was 220 fold; in [16], 48.2 fold.
On to “variant CD80 IgV-Fc (inert) H18A/A26P/E35D/M47L/V68M/A71G/D90G (Fc fusion)”, for which the MFI at 33.3 nM came to 4730 MFI in [1], 23800 MFI in assay [12] and 33400 MFI in assay [13]. Further, the figures for the Fold change to WT CD80 in assay [14], in [15] and in [16] were 17.2 fold, 203 fold and 46.4 fold, respectively.
In the case of “variant CD80 IgV-Fc (inert) H18V/A26S/E35D/M47L/V68M/A71G/D90G (Fc fusion)”, the figures for the MFI at 33.3 nM in assay [1], in [12] and in assay [13] were 8060 MFI, 24900 MFI and 73900 MFI, respectively. Besides, the results for the Fold change to WT CD80 in [14], in [15] and in assay [16] were 18 fold, 448 fold and 79 fold, respectively.
For the substance “variant CD80 IgV-Fc A26E/E35D/M47L/A71G (Fc fusion)”, the MFI at 33.3 nM in [17] was found to be 236 MFI; in [18] it was 341000 MFI; in assay [8] it was 53400 MFI; in [9], 2160 MFI; in assay [19] it was 20600 MFI.
Regarding “variant CD80 IgV-Fc E35D/M47I/Y87Q/K89E (Fc fusion)”, the MFI at 33.3 nM in [8] is 29800 MFI; in [9], 15500 MFI.
As to “variant CD80 IgV-Fc E35D/M47L/L85Q (Fc fusion)”, the MFI at 33.3 nM in assay [7] was found to be 33200 MFI; in assay [18], 336000 MFI; in assay [20], 6100 MFI; in assay [21] it was 12900 MFI; in assay [22] it was 46.3 MFI; in assay [10], 646 MFI.
Regarding “variant CD80 IgV-Fc E35D/M47V/N48K/V68M/K89N (Fc fusion)”, the MFI at 33.3 nM in assay [18] came out at 807 MFI; in assay [8], 89800 MFI; in [20] it was 14800 MFI; in assay [21], 20900 MFI; in assay [9] it was 11700 MFI; in assay [22] it was 1350 MFI.
The substance “variant CD80 IgV-Fc Q27H/E35D/D46V/M47L/A71G (Fc fusion)” registered an MFI at 33.3 nM in assay [9] of 10400 MFI.
As for “variant CD80 IgV-Fc Q33L/E35D/M43I/Y53F/T62S/L85Q (Fc fusion)”, the MFI at 33.3 nM in assay [8] was 72100 MFI; in assay [9] it was 1024 MFI.
